B1: Protein sprouty homolog 1 (Homo sapiens), O43609 (parent)
chain: MDPQNQHGSGSSLVVIQQPSLDSRQRLDYEREIQPTAILSLDQIKAIRGSNEYTEGPSVVKRPAPRTAPRQEKHERTHEIIPINVNNNYEHRHTSHLGHAVLPSNARGPILSRSTSTGSAASSGSNSSASSEQGLLGRSPPTRPVPGHRSERAIRTQPKQLIVDDLKGSLKEDLTQHKFICEQCGKCKCGECTAPRTLPSCLACNRQCLCSAESMVEYGTCMCLVKGIFYHCSNDDEGDSYSDNPCSCSQSHCCSRYLCMGAMSLFLPCLLCYPPAKGCLKLCRRCYDWIHRPGCRCKNSNTVYCKLESCPSRGQGKPS
B2: Tuftelin-interacting protein 11 (Homo sapiens), Q9UBB9 (parent)
chain: MSLSHLYRDGEGRIDDDDDERENFEITDWDLQNEFNPNRQRHWQTKEEATYGVWAERDSDDERPSFGGKRARDYSAPVNFISAGLKKGAAEEAELEDSDDEEKPVKQDDFPKDFGPRKLKTGGNFKPSQKGFAGGTKSFMDFGSWERHTKGIGQKLLQKMGYVPGRGLGKNAQGIINPIEAKQRKGKGAVGAYGSERTTQSMQDFPVVDSEEEAEEEFQKELSQWRKDPSGSKKKPKYSYKTVEELKAKGRISKKLTAPQKELSQVKVIDMTGREQKVYYSYSQISHKHNVPDDGLPLQSQQLPQSGKEAKAPGFALPELEHNLQLLIDLTEQEIIQNDRQLQYERDMVVNLFHELEKMTEVLDHEERVISNLSKVLEMVEECERRMQPDCSNPLTLDECARIFETLQDKYYEEYRMSDRVDLAVAIVYPLMKEYFKEWDPLKDCTYGTEIISKWKSLLENDQLLSHGGQDLSADAFHRLIWEVWMPFVRNIVTQWQPRNCDPMVDFLDSWVHIIPVWILDNILDQLIFPKLQKEVENWNPLTDTVPIHSWIHPWLPLMQARLEPLYSPIRSKLSSALQKWHPSDSSAKLILQPWKDVFTPGSWEAFMVKNIVPKLGMCLGELVINPHQQHMDAFYWVIDWEGMISVSSLVGLLEKHFFPKWLQVLCSWLSNSPNYEEITKWYLGWKSMFSDQVLAHPSVKDKFNEALDIMNRAVSSNVGAYMQPGARENIAYLTHTERRKDFQYEAMQERREAENMAQRGIGVAASSVPMNFKDLIETKAEEHNIVFMPVIGKRHEGKQLYTFGRIVIYIDRGVVFVQGEKTWVPTSLQSLIDMAK
partner: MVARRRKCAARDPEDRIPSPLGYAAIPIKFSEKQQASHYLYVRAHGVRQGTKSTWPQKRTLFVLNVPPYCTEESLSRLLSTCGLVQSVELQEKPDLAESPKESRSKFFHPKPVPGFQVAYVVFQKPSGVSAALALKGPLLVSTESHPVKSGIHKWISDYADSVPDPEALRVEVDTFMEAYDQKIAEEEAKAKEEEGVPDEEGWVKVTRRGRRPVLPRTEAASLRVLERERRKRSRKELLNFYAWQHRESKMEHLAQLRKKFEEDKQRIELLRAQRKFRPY
B3: Phosphatidylserine lipase ABHD16A (Homo sapiens), O95870 (parent)
chain: MAKLLSCVLGPRLYKIYRERDSERAPASVPETPTAVTAPHSSSWDTYYQPRALEKHADSILALASVFWSISYYSSPFAFFYLYRKGYLSLSKVVPFSHYAGTLLLLLAGVACLRGIGRWTNPQYRQFITILEATHRNQSSENKRQLANYNFDFRSWPVDFHWEEPSSRKESRGGPSRRGVALLRPEPLHRGTADTLLNRVKKLPCQITSYLVAHTLGRRMLYPGSVYLLQKALMPVLLQGQARLVEECNGRRAKLLACDGNEIDTMFVDRRGTAEPQGQKLVICCEGNAGFYEVGCVSTPLEAGYSVLGWNHPGFAGSTGVPFPQNEANAMDVVVQFAIHRLGFQPQDIIIYAWSIGGFTATWAAMSYPDVSAMILDASFDDLVPLALKVMPDSWRGLVTRTVRQHLNLNNAEQLCRYQGPVLLIRRTKDEIITTTVPEDIMSNRGNDLLLKLLQHRYPRVMAEEGLRVVRQWLEASSQLEEASIYSRWEVEEDWCLSVLRSYQAEHGPDFPWSVGEDMSADGRRQLALFLARKHLHNFEATHCTPLPAQNFQMPWHL

In one assay the parent is B1. The following applies: with nt2na_human NOTCH2NLA.
In the case of A37T, the “effect of a mutation on the interaction” value is given as “with no effect”.

Turning to R296K, the “effect of a mutation on the interaction” value is “with no effect”.

The variants in another assay derive from B1. The following applies: with otx1_human OTX1, P32242.
Chain of otx1_human OTX1, P32242 (P32242 whole entry): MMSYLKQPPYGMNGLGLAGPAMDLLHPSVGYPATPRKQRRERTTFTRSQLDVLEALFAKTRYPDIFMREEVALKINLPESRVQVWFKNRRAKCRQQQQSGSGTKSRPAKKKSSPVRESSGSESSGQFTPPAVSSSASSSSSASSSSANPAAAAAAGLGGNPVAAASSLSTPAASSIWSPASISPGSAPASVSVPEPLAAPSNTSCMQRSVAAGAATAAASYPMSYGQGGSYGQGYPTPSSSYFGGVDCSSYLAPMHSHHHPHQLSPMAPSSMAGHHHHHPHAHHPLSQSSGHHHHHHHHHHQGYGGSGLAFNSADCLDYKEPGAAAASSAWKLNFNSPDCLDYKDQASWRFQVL
In the case of A37T, the “effect of a mutation on the interaction” value was “with no effect”.

As for R296K, the “effect of a mutation on the interaction” value is “with no effect”.

The variants in the next assay derive from B1. The following applies: with meox2_human MEOX2, P50222.
Chain of meox2_human MEOX2, P50222 (P50222 whole entry): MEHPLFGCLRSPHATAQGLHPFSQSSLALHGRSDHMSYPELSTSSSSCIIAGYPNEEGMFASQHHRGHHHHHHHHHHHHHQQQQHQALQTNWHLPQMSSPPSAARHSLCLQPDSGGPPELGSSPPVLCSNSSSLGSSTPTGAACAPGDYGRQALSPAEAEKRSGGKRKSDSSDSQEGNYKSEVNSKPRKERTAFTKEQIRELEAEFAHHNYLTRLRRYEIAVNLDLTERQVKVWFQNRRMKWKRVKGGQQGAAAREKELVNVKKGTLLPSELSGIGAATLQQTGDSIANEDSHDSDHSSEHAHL
As to A37T, the “effect of a mutation on the interaction” value is listed as “with no effect”.

For R296K, the “effect of a mutation on the interaction” value is “with no effect”.

The next assay covers variants of B1. The settings on record: with kr101_human KRTAP10-1, P60331.
Chain of kr101_human KRTAP10-1, P60331 (P60331 whole entry): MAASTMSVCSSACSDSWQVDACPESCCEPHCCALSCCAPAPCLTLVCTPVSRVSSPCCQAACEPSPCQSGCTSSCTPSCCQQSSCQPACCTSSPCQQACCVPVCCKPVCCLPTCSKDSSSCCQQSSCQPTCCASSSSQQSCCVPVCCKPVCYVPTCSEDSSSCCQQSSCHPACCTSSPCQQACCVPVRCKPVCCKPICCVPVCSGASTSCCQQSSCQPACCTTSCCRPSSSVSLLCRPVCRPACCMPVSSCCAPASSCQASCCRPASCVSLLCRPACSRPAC
On to A37T, for which the “effect of a mutation on the interaction” value is “with no effect”.

Turning to R296K, the “effect of a mutation on the interaction” value was “with no effect”.

The variants in the next assay derive from B2. The following applies: with rrp7a_human RRP7A.
In the case of M140V, the “effect of a mutation on the interaction” value is listed as “with no effect”.

The variants in another assay derive from B3. The settings on record: with dtx2_human DTX2, Q86UW9.
Chain of dtx2_human DTX2, Q86UW9 (Q86UW9 whole entry): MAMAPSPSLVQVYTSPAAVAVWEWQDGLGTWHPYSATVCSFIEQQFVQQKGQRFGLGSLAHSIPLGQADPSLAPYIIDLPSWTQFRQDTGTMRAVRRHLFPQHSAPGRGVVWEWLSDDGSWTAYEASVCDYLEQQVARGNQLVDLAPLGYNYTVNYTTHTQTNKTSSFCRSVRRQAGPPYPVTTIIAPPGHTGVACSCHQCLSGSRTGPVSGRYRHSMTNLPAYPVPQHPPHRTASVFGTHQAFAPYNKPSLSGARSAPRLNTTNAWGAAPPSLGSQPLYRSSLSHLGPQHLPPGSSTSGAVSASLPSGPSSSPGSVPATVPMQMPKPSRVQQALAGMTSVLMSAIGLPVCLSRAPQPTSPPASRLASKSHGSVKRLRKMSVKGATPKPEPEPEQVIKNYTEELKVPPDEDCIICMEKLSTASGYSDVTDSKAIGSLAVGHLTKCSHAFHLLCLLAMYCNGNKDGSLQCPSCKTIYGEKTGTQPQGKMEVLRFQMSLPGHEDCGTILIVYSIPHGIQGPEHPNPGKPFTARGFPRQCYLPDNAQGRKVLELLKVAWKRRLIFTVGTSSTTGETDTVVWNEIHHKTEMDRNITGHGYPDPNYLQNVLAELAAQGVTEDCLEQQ
Regarding R184L, the “effect of a mutation on the interaction” value is given as “with no effect”.

Source of the values: IntAct's records for PubMed 31515488.
